Measured values as given in the Immune Epitope Database (IEDB).

Experiments:
[1] = target: HLA-A*02:01; assay: IEDB peptide-MHC binding, purified MHC/competitive/fluorescence; ≥ and ≤ were set here for values at or beyond the usual limits of such assays
[2] = target: HLA-B*08:01; assay: IEDB peptide-MHC binding, purified MHC/competitive/radioactivity; filed as Kd, often an IC50 or EC50 that approximates it; ≥ and ≤ were set here for values at or beyond the usual limits of such assays
[3] = target: HLA-A*30:01; assay: as above
[4] = target: HLA-A*24:02; assay: as above
[5] = target: HLA-A*01:01; assay: as above
[6] = target: HLA-A*23:01; assay: as above
[7] = target: HLA-A*29:02; assay: as above
[8] = target: HLA-A*26:01; assay: as above
[9] = target: HLA-A*30:02; assay: as above
[10] = target: HLA-A*02:03; assay: as above; conditions: source organism: Dengue virus 1 Brazil/97-11/1997
[11] = target: HLA-A*68:01; assay: as above; conditions: source organism: Dengue virus 3 Martinique/1243/1999
[12] = target: HLA-A*33:01; assay: as above; conditions: source organism: Dengue virus 3 Martinique/1243/1999
[13] = source organism: Human alphaherpesvirus 1 strain 17
[14] = source organism: Vaccinia virus WR
[15] = source organism: Dengue virus 1 Brazil/97-11/1997
[16] = source organism: Dengue virus 2 Jamaica/1409/1983
[17] = source organism: SARS coronavirus Tor2
[18] = source organism: Lassa virus Josiah
[19] = source organism: Dengue virus 3 Martinique/1243/1999
[20] = source organism: Lassa virus GA391

Q: For LLPPELSET, which IC50 [1, 13] is on record?
A: 4.89 µM

Q: How did the Kd [2, 14] turn out when SVYIRPTSL was run?
A: 0.0107 µM

Q: Which Kd [2, 14] does the source give for RRFRRPMSL here?
A: 0.111 µM

Q: Which Kd [3, 15] does the source give for TFKMRPMFA here?
A: 0.0231 µM

Q: For SMFMSLLPA, which Kd [2, 14] is on record?
A: 0.0555 µM

Q: KLRPRWLDA was tested. Which Kd [3, 15] did it give?
A: 0.0225 µM

Q: Which Kd [2, 16] does the source give for VDRKGKVVGL here?
A: 6.32 µM

Q: Which Kd [2, 16] does the source give for HFQRALIFIL here?
A: 1.73 µM

Q: TLGRNKRPRL was tested. Which Kd ([2]; source organism: Dengue virus 3 Sri Lanka/1266/2000) did it give?
A: 0.395 µM

Q: Which Kd [3, 14] does the source give for SALYSYASA here?
A: 0.0367 µM

Q: With HLKNSAENK as the sequence, how does the Kd [3, 14] read?
A: 0.861 µM

Q: VLLNAPSEA was tested. Which IC50 [1, 13] did it give?
A: 0.019 µM

Q: How did the Kd [4, 17] turn out when SWFITQRNF was run?
A: ≥ 40 µM

Q: What about the Kd [5, 17] of the same sequence?
A: ≥ 78.1 µM

Q: And the Kd [6, 17]?
A: 3.9 µM

Q: What about the Kd [7, 17] of the same sequence?
A: 0.0162 µM

Q: What about the Kd [8, 17] of the same sequence?
A: ≥ 77.9 µM

Q: And the Kd [9, 17]?
A: 0.000215 µM

Q: For VLVHPQWVL, which IC50 ([1]; source organism: Homo sapiens) is on record?
A: 2.08 µM

Q: For SVKINFEFV, which Kd [2, 14] is on record?
A: 0.105 µM

Q: For CIKSHSVSL, which Kd [2, 14] is on record?
A: 0.0023 µM

Q: FIRLKLTKL was tested. Which Kd [2, 14] did it give?
A: 0.135 µM

Q: SGALWDVPSP was tested. Which Kd ([3]; source organism: Dengue virus 4 Philippines/H241/1956) did it give?
A: 11 µM

Q: How did the Kd [4, 18] turn out when GIDVTDLFA was run?
A: ≥ 77.5 µM

Q: What about the Kd [5, 18] of the same sequence?
A: 0.261 µM

Q: What about the Kd [6, 18] of the same sequence?
A: ≥ 68.4 µM

Q: What about the Kd [7, 18] of the same sequence?
A: ≥ 78.9 µM

Q: What about the Kd [8, 18] of the same sequence?
A: ≥ 77.9 µM

Q: What about the Kd [9, 18] of the same sequence?
A: ≥ 40.5 µM

Q: What does the source list for PTLVPQEHY?
A: Kd [4, 17]: ≥ 77.6 µM; Kd [5, 17]: 9.07 µM; Kd [6, 17]: ≥ 77.8 µM; Kd [7, 17]: 10.9 µM; Kd [8, 17]: ≥ 102 µM; Kd [9, 17]: 4.51 µM

Q: Which Kd [2, 15] does the source give for LLKATLLAV here?
A: 0.0127 µM

Q: What about the Kd [10] of the same sequence?
A: 30 pM

Q: For KVRSNAALG, which Kd [3, 16] is on record?
A: 0.00244 µM

Q: How did the IC50 ([1]; source organism: Zaire ebolavirus) turn out when DLVLFDLDE was run?
A: ≥ 425 µM

Q: For AIKRRLRTL, which Kd [2, 19] is on record?
A: 0.00967 µM

Q: How did the IC50 [1, 14] turn out when YSHGDIKAS was run?
A: ≥ 72 µM

Q: With EVKTCTWPK as the sequence, how does the Kd [11] read?
A: 0.0252 µM

Q: And the Kd [12]?
A: 0.00854 µM

Q: And the Kd [3, 19]?
A: 9.34 µM

Q: How did the Kd [4, 20] turn out when YCNYSRYWYL was run?
A: 3.28 µM

Q: And the Kd [5, 20]?
A: ≥ 70.4 µM

Q: And the Kd [6, 20]?
A: 1.15 µM

Q: And the Kd [7, 20]?
A: 8.34 µM

Q: And the Kd [8, 20]?
A: ≥ 69.7 µM

Q: What about the Kd [9, 20] of the same sequence?
A: 11.9 µM
